Experimental data reported in patent US5643726, “Methods for modulating transcription from the amyloid β-protein precursor (APP) promoter” (The General Hospital Corporation, dated 1996).

Experiments:
[1] = biological target: T1, USF (43 kDa, recombinant USF) (UniProt P22415 P22415:1-310); assay: competition; cold competitor up to 50-fold failed to diminish complex on DK-1; conditions: tags: expressed in and purified from bacteria; chain copies: 2
Experimental: (§1) EMSA was carried out as in Miner et al. (Miner, L. L. et al., *J. Neurosci. Res.* 33:10–18 (1992)). 1 ng of DNA fragment was incubated with 1 µg nuclear extract for 20 rain at 20° C., unless otherwise indicated. After incubation, the binding mixture was resolved on 6% polyacrylamide gels containing 4% glycerol in 25 mM Tris-borate (pH 8.3), 0.5 mM EDTA. Gels were dried and exposed to Kodak X-OMAT AR film with intensifying screen.
(§2) The amount of complex formed decreased with increasing amounts of cold fragment.

[2] = biological target: upstream stimulatory factor (USF), 43 kDa form (Homo sapiens (Human), UniProt P22415); assay: cell-based or functional assay
[3] = biological target: T1, USF (43 kDa, recombinant USF); assay: EMSA; visible complex with 350 pg rUSF; competed by cold DK-1; conditions: tags: expressed in and purified from bacteria; chain copies: 2; label: 32P
Experimental: as §1, §2

T1 sequence (P22415 whole entry, the tested form may be a part, one chain of several): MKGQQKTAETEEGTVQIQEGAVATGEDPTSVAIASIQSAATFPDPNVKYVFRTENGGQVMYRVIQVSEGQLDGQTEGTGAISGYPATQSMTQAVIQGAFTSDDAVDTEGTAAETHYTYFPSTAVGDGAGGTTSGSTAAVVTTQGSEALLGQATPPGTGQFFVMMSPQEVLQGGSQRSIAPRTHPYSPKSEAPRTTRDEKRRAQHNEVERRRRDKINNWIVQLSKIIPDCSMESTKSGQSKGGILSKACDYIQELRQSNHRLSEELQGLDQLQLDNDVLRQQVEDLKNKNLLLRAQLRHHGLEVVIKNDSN

| Binder | relative luciferase units (USF activation of transcription from the APP promoter) [2] | other results |
| --- | --- | --- |
| AP-1/AP-4 Random (dsDNA) DNA 1: GGGCCGGAATCGTGCTGTCGCCTGGCTCT DNA 2: AGAGCCAGGCGACAGCACGATTCCGGCCC |  | binding result [1]: no binding |
| human amyloid precursor-like protein APLP2 (other) GYIEALAAAAGTGFAVAEPQIAMFCGKLNMHVNIQTGKWEPDPTGTKSCFRTKEEVLQYCQEMYPELQITNVMEANQRVSIDNWCRRDKKQCKSRFVTPFKCLVGEFVSDVLLVPEKCRFFHKERMEVCENHQHWHTVVKEACLTQGMTLYSYGMLLPCGVDQFHGTEYVCCPQTKDYWSVSKEEEEEEDEEEEEEEDEEEDYDVYKSEFPTEADLEDFTEAAVDEDDEDEEEGEEVVEDRDYYYDTFKGDDYNEENPTEPGSDGTMSDKEITHDVKVPPTPLPTNDVDVYFETSADDNEHARFQKAEKEQLIERHRNRMDRVKKEWEEAELQAKNLPKAERQTLIQHFQAMVKALEKAEAASEKQQLVETHLARVEAMLNDRRMALENYLAALQRSDPPRPHRILQPLRRYVRAENKDRLHTIRHYQHVLAVDPEKAAQMKSQVMTHLHVIEERRNQSLSLLYKDPYVARIQENDELLQAERADMDQFTASISETPVDVRVSSEESEEIPPFHPFHPFPALPENEDTQPELYHPMKKGSGVGEQDGGLIGAEEKVINSKNKVDENMVIDETLDKEMIFNAERVGGLEERESVGPLREDFSLSSSASIGLLVIAVAIATVIVISLVMLRKRQVCTISHGIVEVDPMLTPEERHLNKMQNHGYENPTYKTLEQMQI | ~2 fold |  |
| DK-1 fragment (APP promoter -58 to -30, AP-1/AP-4) (dsDNA) DNA 1: GGGCCGGATCAGCTGACTCGCCTGGCTCT DNA 2: AGAGCCAGGCGAGTCAGCTGATCCGGCCC |  | binding result [3]: binds |
| mouse amyloid precursor-like protein APLP1 (other) MGPTSPAARGQGRRWRPPLPLLLPLSLLLLRAQLAVGNLAVGSPSAAEAPGSAQVAGLCGRLTLHRDLRTGRWEPDPQRSRRCLLDPQRVLEYCRQMYPELHIARVEQAAQAIPMERWCGGTRSGRCAHPHHEVVPFHCLPGEFVSEALLVPEGCRFLHQERMDQCESSTRRHQEAQEACSSQGLILHGSGMLLPCGSDRFRGVEYVCCPPPATPNPSGMAAGDPSTRSWPLGGRAEGGEDEEEVESFPQPVDDYFVEPPQAEEEEEEEEERAPPPSSHTPVMVSRVTPTPRPTDGVDVYFGMPGEIGEHEGFLRAKMDLEERRMRQINEVMREWAMADSQSKNLPKADRQALNEHFQSILQTLEEQVSGERQRLVETHATRVIALINDQRRAALEGFLAALQGDPPQAERVLMALRRYLRAEQKEQRHTLRHYQHVAAVDPEKAQQMRFQVQTHLQVIEERMNQSLGLLDQNPHLAQELRPQIQELLLAEHLGPSELDASVPGSSSEDKGSLQPPESKDDPPVTLPKGSTDQESSSSGREKLTPLEQYEQKVNASAPRGFPFHSSDIQRDELAPSGTGVSREALSGLLIMGAGGGSLIVLSLLLLRKKKPYGTISHGVVEVDPMLTLEEQQLRELQRHGYENPTYRFLEERP | ~2 fold |  |
